Measurements published in patent US20120258539A1 (TEMPLE UNIVERSITY OF THE COMMONWEALTH OF HIGHER EDUCATION …, published 2012).

Molecular target: T1, endogenous NIBP (NIK and IKK2 Binding Protein) in MCF7 cells (human (MCF7 cells; species not printed …, UniProt Q96Q05 1-1148, limits assumed)
T1 construct: Immunoprecipitated from whole cell lysate with anti-NIBP antibody
Experiment: co-immunoprecipitation with anti-NIBP antibody from MCF7 lysate, immunoblot anti-IKK1/2 and anti-IKK1
Text: Endogenous NIBP interacts with endogenous IKK2 in breast cancer cells. NIBP association with IKK2, but not IKK1, occurred in MCF7 cells. The level of IKK1 was confirmed by immunoblotting of the same blot (without stripping) with a specific anti-IKK1 antibody. The IKK2 co-immunoprecipitated with NIBP was phosphorylated as shown by the band shift compared to the input and the immunoblotting with anti-phospho IKK1/2(Ser-177/181) antibody (FIG. 4).

T1 sequence (Q96Q05 whole entry): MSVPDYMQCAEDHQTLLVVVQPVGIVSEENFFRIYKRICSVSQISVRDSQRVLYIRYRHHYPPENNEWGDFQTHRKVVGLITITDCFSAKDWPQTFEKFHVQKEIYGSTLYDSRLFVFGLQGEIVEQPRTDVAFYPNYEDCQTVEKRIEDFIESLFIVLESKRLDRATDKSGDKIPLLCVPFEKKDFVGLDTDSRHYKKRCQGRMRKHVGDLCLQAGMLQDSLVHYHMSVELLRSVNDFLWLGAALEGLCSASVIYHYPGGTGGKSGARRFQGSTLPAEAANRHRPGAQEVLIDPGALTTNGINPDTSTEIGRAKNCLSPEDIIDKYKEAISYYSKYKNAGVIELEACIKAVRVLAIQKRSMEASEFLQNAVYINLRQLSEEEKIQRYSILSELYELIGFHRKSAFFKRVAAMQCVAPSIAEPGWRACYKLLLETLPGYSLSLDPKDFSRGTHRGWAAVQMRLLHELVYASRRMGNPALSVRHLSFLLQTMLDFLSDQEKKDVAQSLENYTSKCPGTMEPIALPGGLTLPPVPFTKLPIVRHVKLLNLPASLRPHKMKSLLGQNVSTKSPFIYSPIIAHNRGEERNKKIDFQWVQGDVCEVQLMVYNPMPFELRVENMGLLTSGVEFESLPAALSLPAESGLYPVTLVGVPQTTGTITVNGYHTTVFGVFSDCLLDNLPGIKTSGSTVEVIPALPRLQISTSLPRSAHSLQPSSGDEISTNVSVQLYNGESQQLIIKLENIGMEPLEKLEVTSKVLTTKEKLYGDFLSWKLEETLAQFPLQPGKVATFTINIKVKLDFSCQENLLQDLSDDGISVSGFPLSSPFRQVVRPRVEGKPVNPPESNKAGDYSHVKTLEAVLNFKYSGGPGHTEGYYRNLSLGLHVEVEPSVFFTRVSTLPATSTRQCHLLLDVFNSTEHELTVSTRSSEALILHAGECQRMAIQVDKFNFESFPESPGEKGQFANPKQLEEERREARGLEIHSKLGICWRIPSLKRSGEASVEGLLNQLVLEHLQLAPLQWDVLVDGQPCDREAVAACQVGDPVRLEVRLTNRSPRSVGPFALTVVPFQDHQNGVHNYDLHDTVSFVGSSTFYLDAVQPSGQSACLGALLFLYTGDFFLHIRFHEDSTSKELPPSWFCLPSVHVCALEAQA

binding result: no binding
B1: endogenous IKK1 in MCF7 cells (enzyme, UniProt O15111 1-745, looked up)
chain: MERPPGLRPGAGGPWEMRERLGTGGFGNVCLYQHRELDLKIAIKSCRLELSTKNRERWCHEIQIMKKLNHANVVKACDVPEELNILIHDVPLLAMEYCSGGDLRKLLNKPENCCGLKESQILSLLSDIGSGIRYLHENKIIHRDLKPENIVLQDVGGKIIHKIIDLGYAKDVDQGSLCTSFVGTLQYLAPELFENKPYTATVDYWSFGTMVFECIAGYRPFLHHLQPFTWHEKIKKKDPKCIFACEEMSGEVRFSSHLPQPNSLCSLVVEPMENWLQLMLNWDPQQRGGPVDLTLKQPRCFVLMDHILNLKIVHILNMTSAKIISFLLPPDESLHSLQSRIERETGINTGSQELLSETGISLDPRKPASQCVLDGVRGCDSYMVYLFDKSKTVYEGPFASRSLSDCVNYIVQDSKIQLPIIQLRKVWAEAVHYVSGLKEDYSRLFQGQRAAMLSLLRYNANLTKMKNTLISASQQLKAKLEFFHKSIQLDLERYSEQMTYGISSEKMLKAWKEMEEKAIHYAEVGVIGYLEDQIMSLHAEIMELQKSPYGRRQGDLMESLEQRAIDLYKQLKHRPSDHSYSDSTEMVKIIVHTVQSQDRVLKELFGHLSKLLGCKQKIIDLLPKVEVALSNIKEADNTVMFMQGKRQKEIWHLLKIACTQSSARSLVGSSLEGAVTPQTSAWLPPTSAEHDHSLSCVVTPQDGETSAQMIEENLNCLGHLSTIIHEANEEQGNSMMNLDWSWLTE
notes: Endogenous protein in cell lysate
